From US20090047240A1 (CBIO, published 2009)

Legend:
Assay in all cases: FRET on MonoMac 6 cells, unstimulated and LPS-stimulated
TLR4 = molecular target: T1, TLR4 (human, UniProt O00206 24-839)
T1 construct: whole, on cells; also called Toll-like receptor 4

CD14 = molecular target: T2, CD14 (human, UniProt P08571 20-345)
T2 construct: whole, on cells
T2 sequence (looked up): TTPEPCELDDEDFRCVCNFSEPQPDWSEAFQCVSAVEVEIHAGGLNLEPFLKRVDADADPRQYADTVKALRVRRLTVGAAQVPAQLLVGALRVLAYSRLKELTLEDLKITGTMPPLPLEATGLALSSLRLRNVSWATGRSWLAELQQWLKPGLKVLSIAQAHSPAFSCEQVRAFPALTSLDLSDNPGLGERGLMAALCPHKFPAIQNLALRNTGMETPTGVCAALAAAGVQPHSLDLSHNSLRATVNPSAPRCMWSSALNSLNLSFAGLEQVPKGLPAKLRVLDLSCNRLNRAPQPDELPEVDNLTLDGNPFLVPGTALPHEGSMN

Hsp70 = molecular target: T3, Hsp70 (human, UniProt P0DMV8 2-641)
T3 construct: whole, on cells
T3 sequence (P0DMV8 2-641): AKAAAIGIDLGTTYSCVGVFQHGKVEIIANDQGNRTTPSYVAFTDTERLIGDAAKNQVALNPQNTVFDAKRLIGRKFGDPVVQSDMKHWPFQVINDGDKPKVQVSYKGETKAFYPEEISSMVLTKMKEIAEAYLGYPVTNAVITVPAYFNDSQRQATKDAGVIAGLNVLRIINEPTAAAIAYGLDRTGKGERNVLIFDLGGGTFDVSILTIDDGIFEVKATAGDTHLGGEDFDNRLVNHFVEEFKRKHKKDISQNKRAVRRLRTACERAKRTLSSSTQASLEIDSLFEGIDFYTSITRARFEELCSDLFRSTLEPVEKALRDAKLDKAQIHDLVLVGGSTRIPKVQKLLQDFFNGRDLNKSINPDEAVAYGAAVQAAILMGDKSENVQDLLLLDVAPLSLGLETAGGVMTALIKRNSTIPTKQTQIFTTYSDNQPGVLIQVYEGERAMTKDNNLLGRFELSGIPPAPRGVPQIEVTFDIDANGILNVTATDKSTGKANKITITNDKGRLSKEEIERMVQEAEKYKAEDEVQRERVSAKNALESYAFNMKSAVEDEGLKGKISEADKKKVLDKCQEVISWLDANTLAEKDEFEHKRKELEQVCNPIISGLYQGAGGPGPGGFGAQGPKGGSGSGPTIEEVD

CXCR4 = molecular target: T4, CXCR4 (human, UniProt P61073 1-352)
T4 construct: whole, on cells
T4 sequence (P61073 whole entry): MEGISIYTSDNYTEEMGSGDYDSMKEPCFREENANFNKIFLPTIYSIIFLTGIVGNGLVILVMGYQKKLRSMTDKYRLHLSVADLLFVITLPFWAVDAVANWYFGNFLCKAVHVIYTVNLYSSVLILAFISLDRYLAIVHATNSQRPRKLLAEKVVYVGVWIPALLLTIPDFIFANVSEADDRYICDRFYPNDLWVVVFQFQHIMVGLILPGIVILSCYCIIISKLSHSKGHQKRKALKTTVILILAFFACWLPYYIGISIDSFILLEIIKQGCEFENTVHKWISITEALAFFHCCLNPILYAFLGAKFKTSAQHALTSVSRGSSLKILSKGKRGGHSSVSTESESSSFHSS

Measured: binding result

T1 sequence (O00206 24-839): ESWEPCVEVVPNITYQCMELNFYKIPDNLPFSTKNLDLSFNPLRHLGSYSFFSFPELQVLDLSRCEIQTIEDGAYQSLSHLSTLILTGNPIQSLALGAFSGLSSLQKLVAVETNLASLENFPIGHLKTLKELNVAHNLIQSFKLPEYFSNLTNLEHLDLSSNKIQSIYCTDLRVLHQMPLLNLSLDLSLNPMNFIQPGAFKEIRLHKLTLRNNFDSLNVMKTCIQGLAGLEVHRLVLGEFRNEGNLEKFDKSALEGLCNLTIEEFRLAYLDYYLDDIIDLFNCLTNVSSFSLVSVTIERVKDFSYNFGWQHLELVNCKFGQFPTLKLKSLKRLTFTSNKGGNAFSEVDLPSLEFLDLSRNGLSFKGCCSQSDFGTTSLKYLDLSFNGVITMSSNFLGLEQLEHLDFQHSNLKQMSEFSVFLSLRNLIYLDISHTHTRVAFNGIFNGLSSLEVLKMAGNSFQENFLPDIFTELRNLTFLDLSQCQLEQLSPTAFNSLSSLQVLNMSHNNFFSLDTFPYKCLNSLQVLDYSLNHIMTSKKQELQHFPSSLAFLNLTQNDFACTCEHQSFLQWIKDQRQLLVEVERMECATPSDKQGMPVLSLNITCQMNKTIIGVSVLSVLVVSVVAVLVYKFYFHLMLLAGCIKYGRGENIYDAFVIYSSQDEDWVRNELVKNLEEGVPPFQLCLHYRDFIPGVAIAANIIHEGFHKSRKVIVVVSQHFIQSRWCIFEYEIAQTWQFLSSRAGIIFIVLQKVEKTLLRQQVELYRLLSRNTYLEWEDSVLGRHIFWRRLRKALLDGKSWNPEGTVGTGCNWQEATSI

B1: E. coli GroES (other)
chain: MNIRPLHDRVIVKRKEVETKSAGGIVLTGSAAAKSTRGEVLAVGNGRILENGEVKPLDVKVGDIVIFNDGYGVKSEKIDNEEVLIMSESDILAIVEA
notes: also called E. coli homologue of Cpn10
no binding: all assays above
